Test results taken from the supplement of paper PMC9112550, “Optimization of the antimicrobial peptide Bac7 by deep mutational scanning” (BMC Biology, 2022).

These sequences were tested on Escherichia coli TOP10 (assay: shrunken log2 fold change of peptide-encoding DNA abundance (4.5 h post-induction vs induction); higher = less antimicrobial activity (less host growth inhibition)). Settings: time post-induction: 4.5 h; library: site-saturation at positions 5, 18, 19, 20.
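Further: peptides expressed intracellularly from a pBAD plasmid library in pooled LB shake-flask culture, induced with 0.3% L-arabinose, DNA abundance read by NGS, three biological replicates, DESeq2 with apeglm shrinkage.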

Sequence | shrunken log2 fold change
RRIRRRPPRLPRPRPRPEKDPRP | 0.0399
RRIRRRPPRLPRPRPRPEKYPRP | 0.135
RRIRRRPPRLPRPRPRPELTPRP | -0.0257
RRIRRRPPRLPRPRPRPEMDPRP | 0.186
RRIRRRPPRLPRPRPRPEMKPRP | 0.215
RRIRRRPPRLPRPRPRPEMVPRP | 0.0411
RRIRRRPPRLPRPRPRPEMWPRP | 1.14
RRIRRRPPRLPRPRPRPENPPRP | 0.541
RRIRRRPPRLPRPRPRPEPAPRP | 0.812
RRIRRRPPRLPRPRPRPEPTPRP | 0.543
RRIRRRPPRLPRPRPRPEQDPRP | 0.727
RRIRRRPPRLPRPRPRPERTPRP | 0.232
RRIRRRPPRLPRPRPRPETMPRP | -0.0309
RRIRRRPPRLPRPRPRPEVCPRP | 0.793
RRIRRRPPRLPRPRPRPEVLPRP | 0.211
RRIRRRPPRLPRPRPRPEVPPRP | 0.0172
RRIRRRPPRLPRPRPRPEWLPRP | 0.794
RRIRRRPPRLPRPRPRPEYMPRP | 0.0765
RRIRRRPPRLPRPRPRPFAFPRP | 0.0757
RRIRRRPPRLPRPRPRPFCEPRP | 0.0918
RRIRRRPPRLPRPRPRPFDFPRP | -0.146
RRIRRRPPRLPRPRPRPFDGPRP | 0.079
RRIRRRPPRLPRPRPRPFELPRP | -0.249
RRIRRRPPRLPRPRPRPFETPRP | -0.207
RRIRRRPPRLPRPRPRPFGQPRP | -0.336

Sequence | shrunken log2 fold change
RRIRRRPPRLPRPRPRPFGYPRP | -0.018
RRIRRRPPRLPRPRPRPFHCPRP | 0.089
RRIRRRPPRLPRPRPRPFHFPRP | -0.413
RRIRRRPPRLPRPRPRPFHIPRP | -0.0758
RRIRRRPPRLPRPRPRPFHMPRP | -0.0949
RRIRRRPPRLPRPRPRPFIKPRP | -0.368
RRIRRRPPRLPRPRPRPFISPRP | 0.0236
RRIRRRPPRLPRPRPRPFKVPRP | -0.0272
RRIRRRPPRLPRPRPRPFMFPRP | 0.234
RRIRRRPPRLPRPRPRPFNHPRP | -0.275
RRIRRRPPRLPRPRPRPFNSPRP | 0.0474
RRIRRRPPRLPRPRPRPFQRPRP | 0.608
RRIRRRPPRLPRPRPRPFRKPRP | -0.00961
RRIRRRPPRLPRPRPRPFRPPRP | 0.317
RRIRRRPPRLPRPRPRPFRWPRP | 0.279
RRIRRRPPRLPRPRPRPFTKPRP | -0.221
RRIRRRPPRLPRPRPRPFTWPRP | -0.126
RRIRRRPPRLPRPRPRPFVTPRP | -0.0614
RRIRRRPPRLPRPRPRPFVYPRP | -0.0209
RRIRRRPPRLPRPRPRPFWKPRP | 0.111
RRIRRRPPRLPRPRPRPFWQPRP | 0.0221
RRIRRRPPRLPRPRPRPFYIPRP | -0.039
RRIRRRPPRLPRPRPRPFYWPRP | -0.34
RRIRRRPPRLPRPRPRPGANPRP | 0.208
RRIRRRPPRLPRPRPRPGCEPRP | 0.354

Sequence | shrunken log2 fold change
RRIRRRPPRLPRPRPRPGDDPRP | 0.362
RRIRRRPPRLPRPRPRPGDGPRP | 0.467
RRIRRRPPRLPRPRPRPGFHPRP | 0.0982
RRIRRRPPRLPRPRPRPGFKPRP | 0.0975
RRIRRRPPRLPRPRPRPGGGPRP | 0.841
RRIRRRPPRLPRPRPRPGHNPRP | 0.06
RRIRRRPPRLPRPRPRPGHVPRP | -0.00681
RRIRRRPPRLPRPRPRPGKMPRP | 0.0473
RRIRRRPPRLPRPRPRPGMNPRP | 0.00468
RRIRRRPPRLPRPRPRPGNTPRP | -0.142
RRIRRRPPRLPRPRPRPGPLPRP | 0.415
RRIRRRPPRLPRPRPRPGRYPRP | 0.218
RRIRRRPPRLPRPRPRPGTFPRP | -0.578
RRIRRRPPRLPRPRPRPGTPPRP | 0.435
RRIRRRPPRLPRPRPRPGVLPRP | 0.465
RRIRRRPPRLPRPRPRPGVYPRP | -0.0241
RRIRRRPPRLPRPRPRPGWCPRP | 0.422
RRIRRRPPRLPRPRPRPGWQPRP | 0.381
RRIRRRPPRLPRPRPRPGYYPRP | -0.105
RRIRRRPPRLPRPRPRPHCLPRP | -0.192
RRIRRRPPRLPRPRPRPHCPPRP | 0.0475
RRIRRRPPRLPRPRPRPHDIPRP | -0.127
RRIRRRPPRLPRPRPRPHGQPRP | 0.194
RRIRRRPPRLPRPRPRPHHKPRP | -0.0355
RRIRRRPPRLPRPRPRPHHNPRP | -0.393

Sequence | shrunken log2 fold change
RRIRRRPPRLPRPRPRPHILPRP | -0.68
RRIRRRPPRLPRPRPRPHKAPRP | 0.434
RRIRRRPPRLPRPRPRPHNKPRP | -0.276
RRIRRRPPRLPRPRPRPHPIPRP | 0.35
RRIRRRPPRLPRPRPRPHPMPRP | 0.144
RRIRRRPPRLPRPRPRPHPYPRP | -0.069
RRIRRRPPRLPRPRPRPHQEPRP | -0.0374
RRIRRRPPRLPRPRPRPHRDPRP | 0.546
RRIRRRPPRLPRPRPRPHRGPRP | -0.0548
RRIRRRPPRLPRPRPRPHRNPRP | -0.317
RRIRRRPPRLPRPRPRPHSHPRP | -0.0882
RRIRRRPPRLPRPRPRPHSIPRP | 0.052
RRIRRRPPRLPRPRPRPHTLPRP | -0.182
RRIRRRPPRLPRPRPRPHTNPRP | -0.547
RRIRRRPPRLPRPRPRPHTRPRP | 0.145
RRIRRRPPRLPRPRPRPHVTPRP | -0.154
RRIRRRPPRLPRPRPRPHWCPRP | 0.0137
RRIRRRPPRLPRPRPRPHYDPRP | -0.124
RRIRRRPPRLPRPRPRPHYIPRP | -0.662
RRIRRRPPRLPRPRPRPHYYPRP | -0.0297
RRIRRRPPRLPRPRPRPIAAPRP | 0.521
RRIRRRPPRLPRPRPRPIFYPRP | -0.0503
RRIRRRPPRLPRPRPRPIGYPRP | 0.0143
RRIRRRPPRLPRPRPRPIIHPRP | -0.584
RRIRRRPPRLPRPRPRPILSPRP | 0.246

Sequence | shrunken log2 fold change
RRIRRRPPRLPRPRPRPIMAPRP | 0.107
RRIRRRPPRLPRPRPRPINTPRP | -0.364
RRIRRRPPRLPRPRPRPIPRPRP | 0.625
RRIRRRPPRLPRPRPRPIQEPRP | 0.0641
RRIRRRPPRLPRPRPRPIQKPRP | -0.218
RRIRRRPPRLPRPRPRPIQQPRP | -0.0495
RRIRRRPPRLPRPRPRPIQVPRP | -0.0268
RRIRRRPPRLPRPRPRPIQYPRP | -0.00028
RRIRRRPPRLPRPRPRPIRHPRP | 0.307
RRIRRRPPRLPRPRPRPISEPRP | 0.00118
RRIRRRPPRLPRPRPRPISHPRP | -0.215
RRIRRRPPRLPRPRPRPISKPRP | -0.198
RRIRRRPPRLPRPRPRPITIPRP | 0.035
RRIRRRPPRLPRPRPRPITKPRP | 0.165
RRIRRRPPRLPRPRPRPITNPRP | -0.19
RRIRRRPPRLPRPRPRPIVHPRP | -0.0757
RRIRRRPPRLPRPRPRPIVPPRP | 0.605
RRIRRRPPRLPRPRPRPIWCPRP | -0.0104
RRIRRRPPRLPRPRPRPIWFPRP | 0.0342
RRIRRRPPRLPRPRPRPIYQPRP | 2.25
RRIRRRPPRLPRPRPRPIYWPRP | 0.08
RRIRRRPPRLPRPRPRPKAKPRP | 0.0788
RRIRRRPPRLPRPRPRPKANPRP | 0.264
RRIRRRPPRLPRPRPRPKCFPRP | 0.445
RRIRRRPPRLPRPRPRPKDEPRP | 0.189

Sequence | shrunken log2 fold change
RRIRRRPPRLPRPRPRPKFSPRP | 0.0704
RRIRRRPPRLPRPRPRPKGMPRP | 0.218
RRIRRRPPRLPRPRPRPKHEPRP | 0.0619
RRIRRRPPRLPRPRPRPKKPPRP | 0.974
RRIRRRPPRLPRPRPRPKLEPRP | 0.297
RRIRRRPPRLPRPRPRPKLKPRP | 0.211
RRIRRRPPRLPRPRPRPKLRPRP | 1.25
RRIRRRPPRLPRPRPRPKMEPRP | 0.282
RRIRRRPPRLPRPRPRPKPFPRP | 0.655
RRIRRRPPRLPRPRPRPKQKPRP | 0.264
RRIRRRPPRLPRPRPRPKQMPRP | 0.29
RRIRRRPPRLPRPRPRPKSHPRP | -0.172
RRIRRRPPRLPRPRPRPKTWPRP | -0.0361
RRIRRRPPRLPRPRPRPKVCPRP | 0.0559
RRIRRRPPRLPRPRPRPLDNPRP | -0.0599
RRIRRRPPRLPRPRPRPLDRPRP | -0.00997
RRIRRRPPRLPRPRPRPLFKPRP | -0.00471
RRIRRRPPRLPRPRPRPLGHPRP | 0.203
RRIRRRPPRLPRPRPRPLGSPRP | 0.0898
RRIRRRPPRLPRPRPRPLGTPRP | 0.547
RRIRRRPPRLPRPRPRPLHDPRP | 0.359
RRIRRRPPRLPRPRPRPLILPRP | 0.0353
RRIRRRPPRLPRPRPRPLIPPRP | -0.0124
RRIRRRPPRLPRPRPRPLKMPRP | 0.156
RRIRRRPPRLPRPRPRPLLQPRP | 0.512
